This note sets out measurements from article doi:10.1101/2021.10.02.462850 (bioRxiv, 2021).

The data set deals with the molecule itself. The data set can be described thus: crystal structure.

B1: RUN1^TIR-E100A (domain or fragment, grapevine, UniProt V9M398 23-198, looked up)
chain: RTITYDVFLSFRGEDTRFNFTDHLYSALGRRGIRTFRDDKLRRGEAIAPELLKAIEESRSSVIVFSENYARSRWCLDALVKIMECHKDKKDPGHAVFPIFYHVDPSHVRKQEGSFGEAFAGYGENLKDKIPRWRTALTEAANLSGWPLQDGYESNQIKEITDSIFRRLKCKRLDAG
For B1, the binding result was “binds”.
